{"source": "paper PMC13049129", "molecular_target": "HnRNPA3-Myc (Homo sapiens) (UniProt P51991)", "sequence (P51991 whole entry)": "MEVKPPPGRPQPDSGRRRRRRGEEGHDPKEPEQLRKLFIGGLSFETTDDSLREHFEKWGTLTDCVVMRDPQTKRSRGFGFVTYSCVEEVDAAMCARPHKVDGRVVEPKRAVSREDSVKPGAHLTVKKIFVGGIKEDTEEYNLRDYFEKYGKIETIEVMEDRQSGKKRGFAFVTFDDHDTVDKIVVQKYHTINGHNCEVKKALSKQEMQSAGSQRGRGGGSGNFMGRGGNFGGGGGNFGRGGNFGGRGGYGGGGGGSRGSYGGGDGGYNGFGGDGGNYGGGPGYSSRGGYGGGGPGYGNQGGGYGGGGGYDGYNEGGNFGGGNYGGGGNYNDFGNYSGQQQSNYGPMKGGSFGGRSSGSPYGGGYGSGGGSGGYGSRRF", "assay": "EMSA", "settings": "RNA-EMSA: 40 mM Tris pH 7.4, 30 mM KCl, 1 mM MgCl2, 0.1% IGEPAL CA-630, 1 mM DTT, 10 ug/ml BSA, 37 C, 30 min; 15% polyacrylamide gel stated to contain 8 M urea.", "data": [{"sequence": "GGGAUGUUAAAGAUGAGCGGGUGGCAGCGACAGAGCCAAAAUCAGAGCUGGAACCUGAGGAGAGAGUGUUCAAGAAGGAAGUGUAUCUUCAUACAUCACCACACCUGAAA [huORFchop RNA (105 nt)]", "values": [{"measurement": "binding", "result": "binds"}]}]}
